{
  "source": "paper PMC9621426",
  "about": "“Characterization of a novel pyruvate kinase from Trichinella spiralis and its participation in sugar metabolism, larval molting and development” (PLOS Neglected Tropical Diseases, 2022)",
  "proteins": {"B1": {"name": "rTsPKM (recombinant T. spiralis pyruvate kinase M) (Trichinella spiralis) (protein)", "chain": "MSEKQSQKSRKLAKVAAIPAKTTLEHLCRLDTDHSVEKLVSKTGLICTIGPASCSVETLTKMIQAGMTIARLNFSHGSHDYHAQTVANIRKAVDSLAASGNGKVVAIALDTKGPEIRTGYLAVGSNEEVVVEANSAVRVTVDSGMKFRCTESLIYVDYENMPKVVSKGSKIYIDDGLISLLVNEVADNHLDCVVEHGGKLGSCKGVNLPDCEVDLPAVSEKDAQDLQFAVKHQCDMVFASFVRSAEAVRQIRQTLGVEGRGIKIVAKIENRQGIANVDSIIEEADGVMIARGDLGIEIPAEQVFVAQKAIIAKCRLAGKPAICATQMLESMVDKARPTRAEITDVANAVLDGADCVMLSGETAKGRHPVQAVRTMHQICCQAESVFFQKHFFDELQAMLPRPMNAMDTIAFAVTTAAANCNASAIILLTNTGASAVALSKCRPSSMIISVVKKEQTARYLRLYSGILPCVYDSKNSSSSSPNAVVDWVTSVDQRINYAILFGKKERIIHDGDNVIVVNGWREGPGHTNTIRIFAVEPLIPRP"}},
  "key": {"purified protein [1]": {"substrate": "Nc1ncnc2c1ncn2[C@@H]1O[C@H](COP(=O)(O)OP(=O)(O)O)[C@@H](O)[C@H]1O", "assay": "purified protein", "assay_type": "biochemical, Trichinella spiralis", "settings": "co-substrate PEP, Tris-HCl pH 8.0, 37°C"}, "purified protein [2]": {"substrate": "C=C(OP(=O)(O)O)C(=O)O", "assay": "purified protein", "assay_type": "biochemical, Trichinella spiralis", "settings": "co-substrate ADP, Tris-HCl pH 8.0, 37°C"}},
  "data": [
    {"protein": "B1", "values": [
      {"measurement": "Km", "setting": "purified protein [1]", "value": 3330, "unit": "µM"},
      {"measurement": "Km", "setting": "purified protein [2]", "value": 1510, "unit": "µM"}
    ]}
  ]
}
